From patent US20260226176A1 (THERANOVIR, published 2026)

Legend:
[1] = target: DNA-directed RNA polymerase I subunit RPA1 (human) (UniProt O95602); experiment: co-IP from CTC41.5E lysate, LC-MS/MS, peak area against isotype IP
[2] = target: DNA-dependent protein kinase catalytic subunit (DNA-PK) (human) (UniProt P78527); experiment: as above
[3] = target: Sister chromatid cohesion protein PDS5 homolog B (human) (UniProt Q9NTI5); experiment: as above
[4] = target: DNA topoisomerase 2-alpha (human) (UniProt P11388); experiment: as above
[5] = target: DNA mismatch repair protein Msh6 (human) (UniProt P52701); experiment: as above
[6] = target: UV excision repair protein RAD23 homolog B (human) (UniProt P54727); experiment: as above
[7] = target: DNA topoisomerase 2-beta (human) (UniProt Q02880); experiment: as above
Histone H3.1 (human) [8] = target: Histone H3.1 (human) (UniProt P68431); experiment: as above
[9] = target: DNA topoisomerase 1 (human) (UniProt P11387); experiment: as above
[10] = target: Replication protein A 70 kDa DNA-binding subunit (human) (UniProt P27694); experiment: as above
[11] = target: X-ray repair cross-complementing protein 5 (human) (UniProt P13010); experiment: as above
[12] = target: Poly [ADP-ribose] polymerase 2 (human) (UniProt Q9UGN5); experiment: as above
DNA ligase 3 (human) = DNA ligase 3 (human) (UniProt P49916); experiment: as above
[13] = target: Poly [ADP-ribose] polymerase 1 (human) (UniProt P09874); experiment: as above
[14] = target: Werner syndrome ATP-dependent helicase (human) (UniProt Q14191); experiment: as above
[15] = target: X-ray repair cross-complementing protein 6 (human) (UniProt P12956); experiment: as above
[16] = target: Core histone macro-H2A.1 (human) (UniProt O75367); experiment: as above
Histone H2A.Z (human) [17] = target: Histone H2A.Z (human) (UniProt P0C0S5); experiment: as above
[18] = target: DNA mismatch repair protein Msh2 (human) (UniProt P43246); experiment: as above
[19] = target: DNA repair protein complementing XP-C cells (human) (UniProt Q01831); experiment: as above
[20] = target: SWI/SNF-related matrix-associated actin-dependent regulator of chromatin subfamily A member 5 (human) (UniProt O60264); experiment: as above
[21] = target: FACT complex subunit SPT16 (human) (UniProt Q9Y5B9); experiment: as above
[22] = target: DNA-directed RNA polymerase I subunit RPA1 (human) (UniProt O95602); experiment: co-IP from A549 WT lysate, LC-MS/MS, peak area against isotype IP
[23] = target: DNA-dependent protein kinase catalytic subunit (DNA-PK) (human) (UniProt P78527); experiment: as above
[24] = target: Sister chromatid cohesion protein PDS5 homolog B (human) (UniProt Q9NTI5); experiment: as above
Histone H3.1 (human) [25] = target: Histone H3.1 (human) (UniProt P68431); experiment: as above
[26] = target: X-ray repair cross-complementing protein 5 (human) (UniProt P13010); experiment: as above
[27] = target: Poly [ADP-ribose] polymerase 2 (human) (UniProt Q9UGN5); experiment: as above
Histone H2A.Z (human) [28] = target: Histone H2A.Z (human) (UniProt P0C0S5); experiment: as above
[29] = target: T1, native human NRP-1 on the cell surface (human, UniProt O14786 22-923); experiment: flow cytometry, MDA-MB-231 cells, 40 ug/ml, +chondroitinase
T1 construct: whole, on cells; endogenous protein; isoform and glycosaminoglycan state on the cells not defined; also called native NRP-1 on MDA-MB-231 cells; native form of NRP-1 protein on the CTCs cell surface
Description: Chondroitinase (C2905, Sigma) was reconstituted in a 0.01% BSA aqueous solution. The MDA-MB-231 cells were treated with chondroitinase (1 U/ml) for 2 hours at 37° C. The cells were detached using cell dissociation solution non-enzymatic (C5914, Sigma). 300,000 cells per condition were washed with 2% FBS in PBS and then incubated with different antibodies of interest or their respective isotype controls at 40 μg/ml for 30 min at 4° C. After wash, an Alexa 488-conjugated anti-human immunoglobulin antibody (20022-1, Biotium) was added at 10 μg/ml for 30 min at 4° C. After a final wash, fluorescence, size and granularity of cells were measured by the LSR Fortessa cytometer (BD Biosciences).

Ratio Area V4/IgG4 [1]: 785 | Ratio Area V4/IgG4 [2]: 10.5 | Ratio Area V4/IgG4 [3]: 12.5 | Ratio Area V4/IgG4 [4]: 538 | Ratio Area V4/IgG4 [5]: 813 | Ratio Area V4/IgG4 [6]: 307 | Ratio Area V4/IgG4 [7]: 50.1 | Ratio Area V4/IgG4 (Histone H3.1 (human) [8]): 304 | Ratio Area V4/IgG4 [9]: 6880 | Ratio Area V4/IgG4 [10]: 13.6 | Ratio Area V4/IgG4 [11]: 38.7 | Ratio Area V4/IgG4 [12]: 1 | Ratio Area V4/IgG4 (DNA ligase 3 (human)): 7770 | Ratio Area V4/IgG4 [13]: 709 | Ratio Area V4/IgG4 [14]: 759 | Ratio Area V4/IgG4 [15]: 58.8 | Ratio Area V4/IgG4 [16]: 8780 | Ratio Area V4/IgG4 (Histone H2A.Z (human) [17]): 624 | Ratio Area V4/IgG4 [18]: 335 | Ratio Area V4/IgG4 [19]: 480 | Ratio Area V4/IgG4 [20]: 589 | Ratio Area V4/IgG4 [21]: 5490 | Ratio Area V4/IgG4 [22]: 3210 | Ratio Area V4/IgG4 [23]: 6.06 | Ratio Area V4/IgG4 [24]: 358 | Ratio Area V4/IgG4 (Histone H3.1 (human) [25]): 82.5 | Ratio Area V4/IgG4 [26]: 2.3 | Ratio Area V4/IgG4 [27]: 259 | Ratio Area V4/IgG4 (Histone H2A.Z (human) [28]): 22 | percentage of binding [29]: 86.4%
B1: variant 4 of a-NRP1_LEP n° 1 (antibody, V domains shown)
VH: EVQLVESGGGLVQPGGSLRLSCAASGFTFSSFGMHWVRQAPGKGLEWVAYISSGSSTIHYADSVKGRFTISRDNAKNSLYLQMNSLRAEDTAMYYCARRHYGSSRYWYFDVWGQGTTVTVSS
VL: EIVLTQSPATLSLSPGERATLSCRASQSVKSYLAWYQQKPGQAPRLLIYYASSRATGIPARFSGSGSGTDFTLTISSLEPEDFAVYYCQQYSESPYTFGQGTKLEIK
notes: humanized variant of 21B10; isotype control hIgG4; also called variant 4 a-NRP1_LEP; variant n°4 a-NRP1_LEP
